For 17 molecules, binding signal results are on record in PMC6555819, “Comprehensive study of nuclear receptor DNA binding provides a revised framework for understanding receptor specificity”.

The target in one series is PPARa:RXRa (Homo sapiens, UniProt Q07869;P19793 full;full). In words: no ligand; PBM; 270 nM : 90 nM RXRa; PBS pH 7.4, 2% milk, 0.02% Triton X-100, 1 mM DTT, BSA, 0.4 mg/ml salmon testes DNA. The following applies: tags: GST kept;His cleaved; copies: 1;1; label: surface-attached array probe. Summed up: (§1)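 The probes on custom Agilent 4×180K protein-binding microarrays were double-stranded, with 34-nt variable regions bearing direct-repeat seeds, single-nucleotide variants, half-site ablations and random human genomic background sequences. Incubation lasted 1 h with ligand-free nuclear receptor dimers in PBS pH 7.4, 2% milk, 0.02% Triton X-100, 1 mM DTT, 0.2 mg/mL BSA and 0.4 mg/ml salmon testes DNA. Antibodies against each partner (one per run) detected bound dimers, and fluorescence scans were regression-normalized. Binding z-scores take the random background probes as reference.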

The target in another series is PXR:RXRa (Homo sapiens, UniProt O75469;P19793 full;full). The series is described as above. The following applies: tags: His kept;His cleaved; copies: 1;1; label: surface-attached array probe. Summed up:
as §1

Another series concerns the target FXR:RXRa (Homo sapiens, UniProt Q96RI1;P19793 full;full). The description is as above. Particulars: tags: His kept;His cleaved; copies: 1;1; label: surface-attached array probe. Summed up: as §1
In another series the target is THRa:RXRa (Homo sapiens, UniProt P10827;P19793 full;full). The series is described as follows: no ligand; PBM; 90 nM : 90 nM RXRa; PBS pH 7.4, 2% milk, 0.02% Triton X-100, 1 mM DTT, BSA, 0.4 mg/ml salmon testes DNA. The following applies: tags: His kept;His cleaved; copies: 1;1; label: surface-attached array probe.
The target of another series is PPARg:RXRa (Homo sapiens, UniProt P37231;P19793 full;full). In words: no ligand; PBM; 180 nM : 90 nM RXRa; PBS pH 7.4, 2% milk, 0.02% Triton X-100, 1 mM DTT, BSA, 0.4 mg/ml salmon testes DNA. The following applies: tags: His kept;His cleaved; copies: 1;1; label: surface-attached array probe.
Another series deals with RARa:RXRa (Homo sapiens, UniProt P10276;P19793 full;full). In words: no ligand; PBM; 270 nM : 90 nM RXRa; PBS pH 7.4, 2% milk, 0.02% Triton X-100, 1 mM DTT, BSA, 0.4 mg/ml salmon testes DNA. The following applies: tags: His kept;His cleaved; copies: 1;1; label: surface-attached array probe. Summed up:
as §1

In the next series the target is LXRb:RXRa (Homo sapiens, UniProt P55055;P19793 full;full). The series is described as above. Particulars: tags: His kept;His cleaved; copies: 1;1; label: surface-attached array probe. Summed up:
as §1

The target of a further series is RXRa (Homo sapiens, UniProt P19793). The series is described as follows: no ligand; PBM; 180 nM; PBS pH 7.4, 2% milk, 0.02% Triton X-100, 1 mM DTT, BSA, 0.4 mg/ml salmon testes DNA. Particulars: tags: His cleaved; chain copies: 2; label: surface-attached array probe.
For a further series, the target named is VDR:RXRa (Homo sapiens, UniProt P11473;P19793 full;full). The series is described as follows: no ligand; PBM; 270 nM : 90 nM RXRa; PBS pH 7.4, 2% milk, 0.02% Triton X-100, 1 mM DTT, BSA, 0.4 mg/ml salmon testes DNA. The following applies: tags: His kept;His cleaved; copies: 1;1; label: surface-attached array probe. Summed up: as §1
A further series addresses LXRa:RXRa (Homo sapiens, UniProt Q13133;P19793 full;full). The description is as above. The following applies: tags: His kept;His cleaved; copies: 1;1; label: surface-attached array probe. Summed up:
as §1

Sequence of THRa:RXRa (P10827 other isoform, or with tags, fused parts or gaps, chain 1 of 2): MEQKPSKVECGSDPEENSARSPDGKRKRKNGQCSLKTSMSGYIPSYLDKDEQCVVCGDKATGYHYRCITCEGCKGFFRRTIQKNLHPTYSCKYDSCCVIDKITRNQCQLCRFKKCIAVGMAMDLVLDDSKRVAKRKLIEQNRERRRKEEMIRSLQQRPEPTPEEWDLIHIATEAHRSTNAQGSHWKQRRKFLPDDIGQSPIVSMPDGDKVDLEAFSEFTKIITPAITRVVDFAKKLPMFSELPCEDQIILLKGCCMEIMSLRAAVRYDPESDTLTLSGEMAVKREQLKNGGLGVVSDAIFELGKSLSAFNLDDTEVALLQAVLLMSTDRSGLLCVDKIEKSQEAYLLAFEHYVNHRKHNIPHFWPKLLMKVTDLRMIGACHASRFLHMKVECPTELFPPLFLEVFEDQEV
Sequence of THRa:RXRa (P19793 whole entry, chain 2 of 2): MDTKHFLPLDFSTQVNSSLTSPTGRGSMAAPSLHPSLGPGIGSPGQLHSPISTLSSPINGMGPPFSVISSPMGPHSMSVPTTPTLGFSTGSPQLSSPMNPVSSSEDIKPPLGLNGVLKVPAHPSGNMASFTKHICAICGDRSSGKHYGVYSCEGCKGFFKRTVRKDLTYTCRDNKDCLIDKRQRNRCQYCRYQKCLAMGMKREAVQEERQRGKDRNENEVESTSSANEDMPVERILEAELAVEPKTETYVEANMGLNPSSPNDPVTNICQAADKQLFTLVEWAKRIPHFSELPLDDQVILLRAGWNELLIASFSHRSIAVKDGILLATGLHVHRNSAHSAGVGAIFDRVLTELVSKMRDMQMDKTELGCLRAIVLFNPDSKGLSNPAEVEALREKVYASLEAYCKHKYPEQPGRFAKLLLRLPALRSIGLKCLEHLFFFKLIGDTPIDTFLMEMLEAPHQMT
Sequence of LXRb:RXRa (P55055 whole entry, chain 1 of 2): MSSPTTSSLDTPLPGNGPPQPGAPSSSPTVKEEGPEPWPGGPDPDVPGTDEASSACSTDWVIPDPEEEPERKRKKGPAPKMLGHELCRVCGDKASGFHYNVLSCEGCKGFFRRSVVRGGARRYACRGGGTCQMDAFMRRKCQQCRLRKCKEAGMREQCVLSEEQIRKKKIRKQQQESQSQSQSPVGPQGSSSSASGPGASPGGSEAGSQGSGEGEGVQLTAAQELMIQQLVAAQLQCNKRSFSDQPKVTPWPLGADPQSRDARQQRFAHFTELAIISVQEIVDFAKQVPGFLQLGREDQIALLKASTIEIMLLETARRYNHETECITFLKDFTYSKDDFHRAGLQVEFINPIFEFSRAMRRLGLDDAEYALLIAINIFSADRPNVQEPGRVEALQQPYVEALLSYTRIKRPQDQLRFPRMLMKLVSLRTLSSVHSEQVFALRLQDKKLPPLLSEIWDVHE
Sequence of LXRb:RXRa (P19793 whole entry, chain 2 of 2): as the sequence (P19793 whole entry, chain 2 of 2) above
Sequence of RARa:RXRa (P10276 whole entry, chain 1 of 2): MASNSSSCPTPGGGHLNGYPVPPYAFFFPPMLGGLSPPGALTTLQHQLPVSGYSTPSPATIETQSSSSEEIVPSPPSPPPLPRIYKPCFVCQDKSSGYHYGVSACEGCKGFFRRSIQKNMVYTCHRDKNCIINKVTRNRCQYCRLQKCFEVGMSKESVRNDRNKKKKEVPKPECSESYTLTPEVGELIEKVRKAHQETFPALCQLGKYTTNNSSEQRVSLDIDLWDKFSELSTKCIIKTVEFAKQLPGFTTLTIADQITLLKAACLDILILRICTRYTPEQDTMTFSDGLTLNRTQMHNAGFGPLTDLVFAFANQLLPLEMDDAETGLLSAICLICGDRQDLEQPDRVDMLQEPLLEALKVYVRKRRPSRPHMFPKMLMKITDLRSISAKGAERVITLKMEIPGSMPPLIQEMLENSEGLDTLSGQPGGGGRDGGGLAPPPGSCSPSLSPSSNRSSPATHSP
Sequence of RARa:RXRa (P19793 whole entry, chain 2 of 2): as the sequence (P19793 whole entry, chain 2 of 2) above
Sequence of PPARg:RXRa (P37231 29-505, chain 1 of 2): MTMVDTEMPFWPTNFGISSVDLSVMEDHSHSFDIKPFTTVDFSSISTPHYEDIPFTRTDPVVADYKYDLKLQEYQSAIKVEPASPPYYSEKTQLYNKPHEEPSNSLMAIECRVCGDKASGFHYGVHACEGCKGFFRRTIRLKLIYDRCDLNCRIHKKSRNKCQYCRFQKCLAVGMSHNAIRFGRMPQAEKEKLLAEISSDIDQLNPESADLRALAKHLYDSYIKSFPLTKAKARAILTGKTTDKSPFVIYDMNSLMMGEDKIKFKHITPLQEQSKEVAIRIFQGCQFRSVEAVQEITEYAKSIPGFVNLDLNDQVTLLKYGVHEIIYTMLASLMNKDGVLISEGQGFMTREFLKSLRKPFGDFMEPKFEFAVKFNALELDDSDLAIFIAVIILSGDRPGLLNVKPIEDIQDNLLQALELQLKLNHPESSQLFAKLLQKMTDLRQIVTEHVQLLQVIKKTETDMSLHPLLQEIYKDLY
Sequence of PPARg:RXRa (P19793 whole entry, chain 2 of 2): as the sequence (P19793 whole entry, chain 2 of 2) above
Sequence of FXR:RXRa (Q96RI1 whole entry, chain 1 of 2): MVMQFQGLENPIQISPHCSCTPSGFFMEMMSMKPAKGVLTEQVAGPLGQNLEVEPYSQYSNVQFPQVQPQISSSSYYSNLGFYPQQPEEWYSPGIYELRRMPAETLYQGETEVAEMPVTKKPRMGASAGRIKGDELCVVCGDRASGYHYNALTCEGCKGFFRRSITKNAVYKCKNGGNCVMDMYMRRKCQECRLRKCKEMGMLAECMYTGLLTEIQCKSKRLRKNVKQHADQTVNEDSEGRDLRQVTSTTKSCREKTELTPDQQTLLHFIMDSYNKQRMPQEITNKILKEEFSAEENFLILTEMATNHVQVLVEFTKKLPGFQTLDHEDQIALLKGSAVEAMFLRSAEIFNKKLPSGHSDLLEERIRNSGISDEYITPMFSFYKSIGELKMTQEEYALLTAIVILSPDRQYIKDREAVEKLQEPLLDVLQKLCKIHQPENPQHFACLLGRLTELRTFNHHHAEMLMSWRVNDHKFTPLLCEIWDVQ
Sequence of FXR:RXRa (P19793 whole entry, chain 2 of 2): as the sequence (P19793 whole entry, chain 2 of 2) above

B1: NRC3_random_hg19_402_o1 (dsDNA)
DNA 1: GCTGAGGTGCTTCAGAGATGTCCACTCCTGCTGGCTGCGATTGACAGCGTAGAATGAAGG
DNA 2: CCTTCATTCTACGCTGTCAATCGCAGCCAGCAGGAGTGGACATCTCTGAAGCACCTCAGC
For the molecule B1, the binding signal in the series with PPARa:RXRa was -0.4 PBM z-score against 500 random probes; with PXR:RXRa, -0.8 PBM z-score against 500 random probes; with FXR:RXRa it was -0.38 PBM z-score against 500 random probes; with THRa:RXRa, -0.6 PBM z-score against 500 random probes; with PPARg:RXRa, -0.45 PBM z-score against 500 random probes.

B2: NRC3_wobSeed133_DR5_G26C_o1 (dsDNA)
DNA 1: GCCGTCCAAGGTCAATGCTAGGTCACTGAAAGCATTGCGATTGACAGCGTAGAATGAAGG
DNA 2: CCTTCATTCTACGCTGTCAATCGCAATGCTTTCAGTGACCTAGCATTGACCTTGGACGGC
Take B2: the binding signal in the series with RARa:RXRa is 7.16 PBM z-score against 500 random probes; with THRa:RXRa, 4.78 PBM z-score against 500 random probes.

B3: NRC3_random_hg19_360_o1 (dsDNA)
DNA 1: GCGCCTGCATAGCCATTCACAGACACTGCCAATACCGCGATTGACAGCGTAGAATGAAGG
DNA 2: CCTTCATTCTACGCTGTCAATCGCGGTATTGGCAGTGTCTGTGAATGGCTATGCAGGCGC
In the case of B3, the binding signal is -0.57 PBM z-score against 500 random probes in the series with PPARa:RXRa; -0.36 PBM z-score against 500 random probes with RARa:RXRa; -0.18 PBM z-score against 500 random probes in the series with LXRb:RXRa; -0.43 PBM z-score against 500 random probes with THRa:RXRa; -0.49 PBM z-score against 500 random probes with RXRa.

B4: NRC3_random_hg19_156_o1 (dsDNA)
DNA 1: GCGCCACCAGGCCTGCCTTACAAGAGCTCCTGAAGAGCGATTGACAGCGTAGAATGAAGG
DNA 2: CCTTCATTCTACGCTGTCAATCGCTCTTCAGGAGCTCTTGTAAGGCAGGCCTGGTGGCGC
Regarding B4, the binding signal with RARa:RXRa is -0.57 PBM z-score against 500 random probes; with THRa:RXRa it was -0.26 PBM z-score against 500 random probes.

B5: NRC3_random_hg19_119_o1 (dsDNA)
DNA 1: GCCCTACCCTCCTCCCTGTCACTCGCCAGTCCCAGCGCGATTGACAGCGTAGAATGAAGG
DNA 2: CCTTCATTCTACGCTGTCAATCGCGCTGGGACTGGCGAGTGACAGGGAGGAGGGTAGGGC
Take B5: the binding signal with VDR:RXRa is 0.49 PBM z-score against 500 random probes; in the series with THRa:RXRa, -0.04 PBM z-score against 500 random probes; with PPARg:RXRa, -0.75 PBM z-score against 500 random probes.

B6: NRC3_random_hg19_266_o1 (dsDNA)
DNA 1: GCAATGACAAGGAAGTGTGGAGGCAGAAAGTGCCAAGCGATTGACAGCGTAGAATGAAGG
DNA 2: CCTTCATTCTACGCTGTCAATCGCTTGGCACTTTCTGCCTCCACACTTCCTTGTCATTGC
B6: the binding signal was -0.53 PBM z-score against 500 random probes in the series with RARa:RXRa, -0.28 PBM z-score against 500 random probes in the series with LXRb:RXRa and -0.07 PBM z-score against 500 random probes with THRa:RXRa.

B7: NRC3_random_hg19_233_o1 (dsDNA)
DNA 1: GCTACAAAGTACTGGGATCCTCCCAACAGCCTGCAAGCGATTGACAGCGTAGAATGAAGG
DNA 2: CCTTCATTCTACGCTGTCAATCGCTTGCAGGCTGTTGGGAGGATCCCAGTACTTTGTAGC
As to B7, the binding signal with PXR:RXRa is -0.22 PBM z-score against 500 random probes; in the series with THRa:RXRa, -0.3 PBM z-score against 500 random probes; with PPARg:RXRa, 0.13 PBM z-score against 500 random probes.

B8: NRC3_wobSeed111_DR4_T8G_o1 (dsDNA)
DNA 1: GCCGAACGAGGTCAGAACAGGACAGTGAAGGATGATGCGATTGACAGCGTAGAATGAAGG
DNA 2: CCTTCATTCTACGCTGTCAATCGCATCATCCTTCACTGTCCTGTTCTGACCTCGTTCGGC
B8: the figures for the binding signal with RARa:RXRa and in the series with THRa:RXRa were 3.37 PBM z-score against 500 random probes and 4.78 PBM z-score against 500 random probes, respectively.

B9: NRC3_random_hg19_227_o1 (dsDNA)
DNA 1: GCGAAGGAAGGAAGGAAGGAAGGAAGGAAGGAAGGCGCGATTGACAGCGTAGAATGAAGG
DNA 2: CCTTCATTCTACGCTGTCAATCGCGCCTTCCTTCCTTCCTTCCTTCCTTCCTTCCTTCGC
For the molecule B9, the binding signal with PXR:RXRa is -0.88 PBM z-score against 500 random probes; in the series with THRa:RXRa, -0.49 PBM z-score against 500 random probes; in the series with PPARg:RXRa, -0.31 PBM z-score against 500 random probes; with RXRa it was -1.01 PBM z-score against 500 random probes.

B10: NRC3_wobSeed85_DR3_A16T_o1 (dsDNA)
DNA 1: GCCGTCCAAGGTCAGTGAGGTCAGTGAATGCCGAGTGCGATTGACAGCGTAGAATGAAGG
DNA 2: CCTTCATTCTACGCTGTCAATCGCACTCGGCATTCACTGACCTCACTGACCTTGGACGGC
As for B10, the binding signal with RARa:RXRa was 4.46 PBM z-score against 500 random probes; with THRa:RXRa it was 4.89 PBM z-score against 500 random probes.

B11: NRC3_random_hg19_257_o1 (dsDNA)
DNA 1: GCACACTGACAATAGCATACACCTTTCCAGAATGCGGCGATTGACAGCGTAGAATGAAGG
DNA 2: CCTTCATTCTACGCTGTCAATCGCCGCATTCTGGAAAGGTGTATGCTATTGTCAGTGTGC
Regarding B11, the binding signal is 0.17 PBM z-score against 500 random probes with PXR:RXRa, 0.41 PBM z-score against 500 random probes in the series with RARa:RXRa and 0.05 PBM z-score against 500 random probes with THRa:RXRa.

B12: NRC3_random_hg19_138_o1 (dsDNA)
DNA 1: GCTAGGTTCTCAGAGTAAGAAGTCCATGTTGGTTAGGCGATTGACAGCGTAGAATGAAGG
DNA 2: CCTTCATTCTACGCTGTCAATCGCCTAACCAACATGGACTTCTTACTCTGAGAACCTAGC
Consider B12, for which the binding signal in the series with FXR:RXRa was 0.34 PBM z-score against 500 random probes; with RARa:RXRa, -0.25 PBM z-score against 500 random probes; with LXRb:RXRa it was 0.28 PBM z-score against 500 random probes; with THRa:RXRa it was 0.16 PBM z-score against 500 random probes.

B13: NRC3_wobSeed72_DR2_G20T_o1 (dsDNA)
DNA 1: GCTCGAGTAGGTTACGGGGTCATTCAGGGATGAAGAGCGATTGACAGCGTAGAATGAAGG
DNA 2: CCTTCATTCTACGCTGTCAATCGCTCTTCATCCCTGAATGACCCCGTAACCTACTCGAGC
With B13, the binding signal was 6.49 PBM z-score against 500 random probes with PXR:RXRa, 7.48 PBM z-score against 500 random probes with RARa:RXRa and 4.85 PBM z-score against 500 random probes with THRa:RXRa.

B14: NRC3_random_hg19_91_o1 (dsDNA)
DNA 1: GCGACTCAGACACTGCTGGCACCCGACACTGCTCTCGCGATTGACAGCGTAGAATGAAGG
DNA 2: CCTTCATTCTACGCTGTCAATCGCGAGAGCAGTGTCGGGTGCCAGCAGTGTCTGAGTCGC
On to B14, for which the binding signal was -0.13 PBM z-score against 500 random probes with RARa:RXRa and -0.34 PBM z-score against 500 random probes with THRa:RXRa.

B15: NRC3_random_hg19_192_o1 (dsDNA)
DNA 1: GCGCAGGAAGCCCTCCTCCAGCTTACAGTGGAACTCGCGATTGACAGCGTAGAATGAAGG
DNA 2: CCTTCATTCTACGCTGTCAATCGCGAGTTCCACTGTAAGCTGGAGGAGGGCTTCCTGCGC
Consider B15, for which the binding signal with RARa:RXRa is -1.09 PBM z-score against 500 random probes; with LXRb:RXRa it was -1.14 PBM z-score against 500 random probes; in the series with THRa:RXRa, -0.77 PBM z-score against 500 random probes.

B16: NRC3_wobSeed73_DR3_T8C_o1 (dsDNA)
DNA 1: GCCAAACCAGGTCACAGAGGTCAAAGTCCGTGCGTAGCGATTGACAGCGTAGAATGAAGG
DNA 2: CCTTCATTCTACGCTGTCAATCGCTACGCACGGACTTTGACCTCTGTGACCTGGTTTGGC
As for B16, the binding signal with FXR:RXRa is 8 PBM z-score against 500 random probes; in the series with RARa:RXRa, 8.19 PBM z-score against 500 random probes; with LXRb:RXRa it was 6.76 PBM z-score against 500 random probes; with VDR:RXRa, 8.47 PBM z-score against 500 random probes; with THRa:RXRa, 5.06 PBM z-score against 500 random probes.

B17: NRC3_random_hg19_379_o1 (dsDNA)
DNA 1: GCAGGCTGGCAGATGGTTCAACAGGTGAGTAAAGCAGCGATTGACAGCGTAGAATGAAGG
DNA 2: CCTTCATTCTACGCTGTCAATCGCTGCTTTACTCACCTGTTGAACCATCTGCCAGCCTGC
Turning to B17, the binding signal in the series with LXRa:RXRa is -0.53 PBM z-score against 500 random probes; in the series with THRa:RXRa, -0.17 PBM z-score against 500 random probes; in the series with PPARg:RXRa, -0.07 PBM z-score against 500 random probes.
